Consider six sequences from the supplement of paper PMC5998384.

The subject of data set [1] is HeLa Kyoto. Briefly: thermal stability score vs G1/S (z-score of summed log2 fold changes over temperatures); higher = more thermally stable than in G1/S.
Data set [2] relates to HeLa Kyoto. The data set can be described thus: solubility change mitosis vs G1/S (difference of NP-40 vs SDS log2 ratios) (log2 ratio difference); higher = more soluble in mitosis.
Data set [3] relates to HeLa Kyoto. Briefly: melting temperature (median over replicates), in situ; higher = more thermally stable.
The subject of data set [4] is HeLa Kyoto. The data set can be described thus: solubility in G1/S (NP-40 vs SDS abundance) (log2 ratio); higher = more soluble. The conditions noted are these: cell cycle stage: G1/S.
[5] abbreviates: cell cycle stage: early G1 (4.5 h after nocodazole release).
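Throughout, for melting temperature (median over replicates), in situ: HeLa Kyoto cells synchronized by double thymidine or nocodazole block, proteins quantified by TMT10plex mass spectrometry, three independent biological replicates.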
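Throughout, for solubility change mitosis vs G1/S (difference of NP-40 vs SDS log2 ratios): synchronized HeLa Kyoto cells (double thymidine block for G1/S, nocodazole release for mitosis), protein amounts in NP-40 versus SDS lysates quantified by mass spectrometry, three biological replicates.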
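Throughout, for solubility in G1/S (NP-40 vs SDS abundance): HeLa Kyoto cells arrested at G1/S by double thymidine block, proteins quantified by TMT10plex mass spectrometry in mild NP-40 versus SDS extracts, three biological replicates.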
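Throughout, for thermal stability score vs G1/S (z-score of summed log2 fold changes over temperatures): synchronized HeLa Kyoto cells, proteins quantified by TMT10plex mass spectrometry, three biological replicates, mitosis taken 0.5 h after nocodazole release, G1/S directly after double thymidine block.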

As to “MDDLCEANGTFAISLFKILGEEDNSRNVFFSPMSISSALAMVFMGAKGSTAAQMSQALCLYKDGDIHRGFQSLLSEVNRTGTQYLLRTANRLFGEKTCDFLPDFKEYCQKFYQAELEELSFAEDTEECRKHINDWVAEKTEGKISEVLDAGTVDPLTKLVLVNAIYFKGKWNEQFDRKYTRGMLFKTNEEKKTVQMMFKEAKFKMGYADEVHTQVLELPYVEEELSMVILLPDDNTDLAVVEKALTYEKFKAWTNSEKLTKSKVQVFLPRLKLEESYDLEPFLRRLGMIDAFDEAKADFSGMSTEKNVPLSKVAHKCFVEVNEEGTEAAAATAVVRNSRCSRMEPRFCADHPFLFFIRHHKTNCILFCGRFSSP [SERPINB8]”, the thermal stability score with HeLa Kyoto [1] (setting [5]) is -0.0278; with HeLa Kyoto [1] (cell cycle stage: mitosis), -0.739. Moreover, in the data set with HeLa Kyoto [2], the “solubility change mitosis (log2)” value is -0.115. Besides, the results for the melting temperature with HeLa Kyoto [3] (cell cycle stage: G1/S) and with HeLa Kyoto [3] (cell cycle stage: mitosis) were 54.6 °C and 54.2 °C, respectively. Moreover, the “solubility in G1/S (log2)” value in the data set on HeLa Kyoto [4] came to 0.146.

“MDDPDCDSTWEEDEEDAEDAEDEDCEDGEAAGARDADAGDEDEESEEPRAARPSSFQSRMTGSRNWRATRDMCRYRHNYPDLVERDCNGDTPNLSFYRNEIRFLPNGCFIEDILQNWTDNYDLLEDNHSYIQWLFPLREPGVNWHAKPLTLREVEVFKSSQEIQERLVRAYELMLGFYGIRLEDRGTGTVGRAQNYQKRFQNLNWRSHNNLRITRILKSLGELGLEHFQAPLVRFFLEETLVRRELPGVRQSALDYFMFAVRCRHQRRQLVHFAWEHFRPRCKFVWGPQDKLRRFKPSSLPHPLEGSRKVEEEGSPGDPDHEASTQGRTCGPEHSKGGGRVDEGPQPRSVEPQDAGPLERSQGDEAGGHGEDRPEPLSPKESKKRKLELSRREQPPTEPGPQSASEVEKIALNLEGCALSQGSLRTGTQEVGGQDPGEAVQPCRQPLGARVADKVRKRRKVDEGAGDSAAVASGGAQTLALAGSPAPSGHPKAGHSENGVEEDTEGRTGPKEGTPGSPSETPGPSPAGPAGDEPAESPSETPGPRPAGPAGDEPAESPSETPGPRPAGPAGDEPAESPSETPGPSPAGPTRDEPAESPSETPGPRPAGPAGDEPAESPSETPGPRPAGPAGDEPAESPSETPGPSPAGPTRDEPAKAGEAAELQDAEVESSAKSGKP [OGFR]”: the thermal stability score in the data set on HeLa Kyoto [1] (setting [5]) is 1.46; in the data set with HeLa Kyoto [1] (cell cycle stage: mitosis) it was 3.46. For the same sequence, in the data set on HeLa Kyoto [2], the “solubility change mitosis (log2)” value was -0.0617. The melting temperature with HeLa Kyoto [3] (cell cycle stage: G1/S) was 48.1 °C; in the data set with HeLa Kyoto [3] (cell cycle stage: mitosis) it was 49.6 °C. Besides, in the data set on HeLa Kyoto [4], the “solubility in G1/S (log2)” value turned out to be 0.423.

As for “MDDQGCPRCKTTKYRNPSLKLMVNVCGHTLCESCVDLLFVRGAGNCPECGTPLRKSNFRVQLFEDPTVDKEVEIRKKVLKIYNKREEDFPSLREYNDFLEEVEEIVFNLTNNVDLDNTKKKMEIYQKENKDVIQKNKLKLTREQEELEEALEVERQENEQRRLFIQKEEQLQQILKRKNKQAFLDELESSDLPVALLLAQHKDRSTQLEMQLEKPKPVKPVTFSTGIKMGQHISLAPIHKLEEALYEYQPLQIETYGPHVPELEMLGRLGYLNHVRAASPQDLAGGYTSSLACHRALQDAFSGLFWQPS [MNAT1]”, the thermal stability score with HeLa Kyoto [1] (setting [5]) was -0.397; in the data set on HeLa Kyoto [1] (cell cycle stage: mitosis) it was -0.426. Moreover, the “solubility change mitosis (log2)” value in the data set with HeLa Kyoto [2] worked out at 0.565. Further, the results for the melting temperature with HeLa Kyoto [3] (cell cycle stage: G1/S) and with HeLa Kyoto [3] (cell cycle stage: mitosis) were 52.1 °C and 53 °C, respectively. In addition, in the data set on HeLa Kyoto [4], the “solubility in G1/S (log2)” value was -0.181.

In the case of “MDDQQALNSIMQDLAVLHKASRPALSLQETRKAKSSSPKKQNDVRVKFEHRGEKRILQFPRPVKLEDLRSKAKIAFGQSMDLHYTNNELVIPLTTQDDLDKAVELLDRSIHMKSLKILLVINGSTQATNLEPLPSLEDLDNTVFGAERKKRLSIIGPTSRDRSSPPPGYIPDELHQVARNGSFTSINSEGEFIPESMDQMLDPLSLSSPENSGSGSCPSLDSPLDGESYPKSRMPRAQSYPDNHQEFSDYDNPIFEKFGKGGTYPRRYHVSYHHQEYNDGRKTFPRARRTQGTSLRSPVSFSPTDHSLSTSSGSSIFTPEYDDSRIRRRGSDIDNPTLTVMDISPPSRSPRAPTNWRLGKLLGQGAFGRVYLCYDVDTGRELAVKQVQFDPDSPETSKEVNALECEIQLLKNLLHERIVQYYGCLRDPQEKTLSIFMEYMPGGSIKDQLKAYGALTENVTRKYTRQILEGVHYLHSNMIVHRDIKGANILRDSTGNVKLGDFGASKRLQTICLSGTGMKSVTGTPYWMSPEVISGEGYGRKADIWSVACTVVEMLTEKPPWAEFEAMAAIFKIATQPTNPKLPPHVSDYTRDFLKRIFVEAKLRPSADELLRHMFVHYH [MAP3K2]”, the thermal stability score in the data set on HeLa Kyoto [1] (setting [5]) was found to be 0.798; in the data set on HeLa Kyoto [1] (cell cycle stage: mitosis), 1.24. Besides, the “solubility change mitosis (log2)” value in the data set on HeLa Kyoto [2] is -0.043. Also, the melting temperature in the data set with HeLa Kyoto [3] (cell cycle stage: G1/S) amounted to 51.3 °C; in the data set with HeLa Kyoto [3] (cell cycle stage: mitosis), 51.4 °C. Moreover, the “solubility in G1/S (log2)” value in the data set with HeLa Kyoto [4] turned out to be 0.0839.

As to “MDEEYDVIVLGTGLTECILSGIMSVNGKKVLHMDRNPYYGGESSSITPLEELYKRFQLLEGPPESMGRGRDWNVDLIPKFLMANGQLVKMLLYTEVTRYLDFKVVEGSFVYKGGKIYKVPSTETEALASNLMGMFEKRRFRKFLVFVANFDENDPKTFEGVDPQTTSMRDVYRKFDLGQDVIDFTGHALALYRTDDYLDQPCLETVNRIKLYSESLARYGKSPYLYPLYGLGELPQGFARLSAIYGGTYMLNKPVDDIIMENGKVVGVKSEGEVARCKQLICDPSYIPDRVRKAGQVIRIICILSHPIKNTNDANSCQIIIPQNQVNRKSDIYVCMISYAHNVAAQGKYIAIASTTVETTDPEKEVEPALELLEPIDQKFVAISDLYEPIDDGCESQVFCSCSYDATTHFETTCNDIKDIYKRMAGTAFDFENMKRKQNDVFGEAEQ [GDI1]”, the thermal stability score with HeLa Kyoto [1] (setting [5]) is -0.651; in the data set with HeLa Kyoto [1] (cell cycle stage: mitosis) it was -1.41. The “solubility change mitosis (log2)” value with HeLa Kyoto [2] was -0.152. Besides, the melting temperature with HeLa Kyoto [3] (cell cycle stage: G1/S) stood at 54.2 °C; in the data set on HeLa Kyoto [3] (cell cycle stage: mitosis) it was 53.8 °C. The “solubility in G1/S (log2)” value in the data set on HeLa Kyoto [4] was 0.0264.

“MDESALLDLLECPVCLERLDASAKVLPCQHTFCKRCLLGIVGSRNELRCPECRTLVGSGVEELPSNILLVRLLDGIKQRPWKPGPGGGSGTNCTNALRSQSSTVANCSSKDLQSSQGGQQPRVQSWSPPVRGIPQLPCAKALYNYEGKEPGDLKFSKGDIIILRRQVDENWYHGEVNGIHGFFPTNFVQIIKPLPQPPPQCKALYDFEVKDKEADKDCLPFAKDDVLTVIRRVDENWAEGMLADKIGIFPISYVEFNSAAKQLIEWDKPPVPGVDAGECSSAAAQSSTAPKHSDTKKNTKKRHSFTSLTMANKSSQASQNRHSMEISPPVLISSSNPTAAARISELSGLSCSAPSQVHISTTGLIVTPPPSSPVTTGPSFTFPSDVPYQAALGTLNPPLPPPPLLAATVLASTPPGATAAAAAAGMGPRPMAGSTDQIAHLRPQTRPSVYVAIYPYTPRKEDELELRKGEMFLVFERCQDGWFKGTSMHTSKIGVFPGNYVAPVTRAVTNASQAKVPMSTAGQTSRGVTMVSPSTAGGPAQKLQGNGVAGSPSVVPAAVVSAAHIQTSPQAKVLLHMTGQMTVNQARNAVRTVAAHNQERPTAAVTPIQVQNAAGLSPASVGLSHHSLASPQPAPLMPGSATHTAAISISRASAPLACAAAAPLTSPSITSASLEAEPSGRIVTVLPGLPTSPDSASSACGNSSATKPDKDSKKEKKGLLKLLSGASTKRKPRVSPPASPTLEVELGSAELPLQGAVGPELPPGGGHGRAGSCPVDGDGPVTTAVAGAALAQDAFHRKASSLDSAVPIAPPPRQACSSLGPVLNESRPVVCERHRVVVSYPPQSEAELELKEGDIVFVHKKREDGWFKGTLQRNGKTGLFPGSFVENI [SH3RF1]”: the thermal stability score with HeLa Kyoto [1] (setting [5]) stood at 0.34; in the data set on HeLa Kyoto [1] (cell cycle stage: mitosis), 1.14. Moreover, the “solubility change mitosis (log2)” value in the data set on HeLa Kyoto [2] is -0.13. Besides, the melting temperature is 49.3 °C with HeLa Kyoto [3] (cell cycle stage: G1/S) and 51 °C in the data set with HeLa Kyoto [3] (cell cycle stage: mitosis). Further, in the data set with HeLa Kyoto [4], the “solubility in G1/S (log2)” value came to 0.517.
